Assay results from paper PMC3539426, “Crystal Structure of a 9-Subunit Archaeal Exosome in Pre-Catalytic States of the Phosphorolytic Reaction” (Archaea, 2012).

T1: Rrp42 (S. solfataricus exosome RNase PH subunit) (S. solfataricus, UniProt Q9UXC0 1-275)
T1 construct: Rrp42, RNase PH subunit of the Sulfolobus solfataricus exosome; Three copies stand in the 9-subunit complex; source: E. coli, recombinantly expressed, purified
T1 sequence: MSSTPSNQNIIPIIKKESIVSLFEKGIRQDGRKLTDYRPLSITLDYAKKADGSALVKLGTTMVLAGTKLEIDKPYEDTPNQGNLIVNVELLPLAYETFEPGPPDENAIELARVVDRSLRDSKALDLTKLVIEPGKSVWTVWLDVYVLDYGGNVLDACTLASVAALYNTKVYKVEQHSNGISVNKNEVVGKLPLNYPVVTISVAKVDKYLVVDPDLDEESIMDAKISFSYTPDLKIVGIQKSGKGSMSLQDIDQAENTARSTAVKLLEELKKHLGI

B1: Rrp4 (S. solfataricus exosome RNA binding protein) (natural protein)
chain: MNMSQSQKIVLQPRSIVVPGELLAEGEFQIPWSPYILKINSKYYSTVVGLFDVKDTQFEVIPLEGSFYYPKINDIVIGLVEDVEIYGWVVDIKAPYKAYLPASNLLGRSINVGEDLRRYLDVGDYVIARIENFDRSIDPVLSVKGKDLGRVSNGIVIDIMPVKVPRVIGKNKSMYETLTSKSGCSIFVANNGRIWATCPSRFSEEILIEAIRKIENESHIKGLTDRIKQFIEEKLGERNASSGETKTNS
notes: Three copies stand in the 9-subunit complex; source: E. coli, recombinantly expressed, purified

Key:
[1] = target: S. solfataricus exosome, nonameric 3*(Rrp41/Rrp42/Rrp4) complex (Saccharolobus solfataricus, UniProt Q9UXC2, D182A); conditions: 1.8 Å Pi-bound structure (4ba1), 10 mM Pi soak with 1 mM 7mer poly(A) RNA, RNA not visible; also 2.5 Å structure with RNA and Pi (4ba2); Rrp41 active site R99, G137, S138, R139; catalytically inactive
[2] = target: T1, Rrp42 (S. solfataricus exosome RNase PH …); experiment: crystal structure; Rrp4/Rrp41^D182A/Rrp42 crystals, space group P213, one copy of each subunit in the asymmetric unit; soaked with 7 mer poly(A) RNA and Pi; 1.8 Å (Pi bound) and 2.5 Å (RNA and Pi bound); conditions: both partners purified
[3] = target: B1; experiment: as above; conditions: both partners purified

Molecule	X-ray crystal structure, crystal soaking [1]	binding result [2]	binding result [3]
O=P(O)(O)O [Pi, inorganic phosphate]	the Pi ion is bound by four residues from the Rrp41 subunit	–	–
Rrp41^D182A (S. solfataricus exosome RNase PH subunit Rrp41 with the D182A point mutation) (enzyme, Rrp41, RNase PH subunit of the Sulfolobus solfataricus exosome, with D182A; Three copies stand in the 9-subunit complex 3*(Rrp41/Rrp42/Rrp4); the construct is not described here; source: E. coli, recombinantly expressed, purified) MREMLQVERPKLILDDGKRTDGRKPDELRSIKIELGVLKNADGSAIFEMGNTKAIAAVYGPKEMHPRHLSLPDRAVLRVRYHMTPFSTDERKNPAPSRREIELSKVIREALESAVLVELFPRTAIDVFTEILQADAGSRLVSLMAASLALADAGIPMRDLIAGVAVGKADGVIILDLNETEAMWGEADMPIAMMPSLNQVTLFQLNGSMTPDEFRQAFDLAVKGINIIYNLEREALKSKYVEFKEEGV	–	binds	binds
B1	–	binds	–
